Assay results from article PMC12356973.

Biological target: nsp10 (two [Fe4S4]);nsp16 (SARS-CoV-2;SARS-CoV-2, UniProt P0DTD1;P0DTD1 4254-4392;6799-7096, |)
Assay: EMSA
Conditions: protein: recombinant;recombinant; copies: 1;1; single strand

AUUAAAGGUU (ssRNA, 5' m7Gppp cap (Cap-0), Vaccinia capping system) [Cap-0 RNA (7MeGppp RNA)]
binding result: binds
